# Reference: patent US20180282403A1, “AGENTS FOR REDUCING THE ACTIVITY OF GDF15” (GENAGON THERAPEUTICS AB, priority 2015, published 2018)
# No end group written: not given here.
# T1: GDF15 (Homo sapiens, UniProt Q99988)
# T1 construct: purchased Abcam
# T1 sequence (Q99988 197-308 limits assumed): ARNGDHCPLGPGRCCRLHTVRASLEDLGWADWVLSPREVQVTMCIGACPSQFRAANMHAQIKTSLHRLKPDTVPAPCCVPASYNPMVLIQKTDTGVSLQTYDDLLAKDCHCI
# T2: QRFPR (Homo sapiens, UniProt Q96P65)
# T2 construct: endogenous in cells
# T2 sequence (Q96P65 1-431): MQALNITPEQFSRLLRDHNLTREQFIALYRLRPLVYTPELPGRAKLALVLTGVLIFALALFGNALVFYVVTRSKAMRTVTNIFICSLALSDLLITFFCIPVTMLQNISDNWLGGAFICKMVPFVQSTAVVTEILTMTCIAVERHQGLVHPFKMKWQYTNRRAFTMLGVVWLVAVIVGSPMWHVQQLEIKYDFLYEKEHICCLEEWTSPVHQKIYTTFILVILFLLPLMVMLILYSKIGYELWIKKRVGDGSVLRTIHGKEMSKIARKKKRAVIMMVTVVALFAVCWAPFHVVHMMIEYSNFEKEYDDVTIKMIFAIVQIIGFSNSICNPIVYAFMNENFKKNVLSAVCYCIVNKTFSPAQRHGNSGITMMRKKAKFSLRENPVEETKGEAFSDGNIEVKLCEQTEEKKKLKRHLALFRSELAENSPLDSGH
# T3: Growth and differentiation factor 15 (GDF15) (UniProt Q99988 197-308, limits assumed)
# T3 construct: Purchased GDF15 added to cells, pull-downs, peptide arrays and ELISA; also called MIC1
# T3 sequence (looked up): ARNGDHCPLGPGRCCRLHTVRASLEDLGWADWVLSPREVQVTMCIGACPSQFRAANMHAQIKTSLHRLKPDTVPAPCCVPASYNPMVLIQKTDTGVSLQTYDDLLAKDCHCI
# B1: AAAQEADGARSAVVAAGGGSSGQVTSNGSIGRDPPAETQPQNPPAQPAPNAGGGGSGGGGSGGGGS-Fc mouse IgG1 (protein)
# chain: AAAQEADGARSAVVAAGGGSSGQVTSNGSIGRDPPAETQPQNPPAQPAPNAGGGGSGGGGSGGGGS-{Fc mouse IgG1}
# notes: control protein, Fc fusion
# B2: CLPTM1 peptide KALYRRLATVHMSRMINKYKG (SEQ ID NO: 259) (peptide)
# peptide: KALYRRLATVHMSRMINKYKG
# modifications: also: biotinylated, position not given here
# notes: Immobilised in streptavidin wells; the entry carries one added C-terminal G; also called (182-201)
# B3: CLPTM1 peptide GDYYPIIYFNDYWNLQKDYYG (SEQ ID NO: 270) (peptide)
# peptide: GDYYPIIYFNDYWNLQKDYYG
# modifications: also: biotinylated, position not given here
# notes: Immobilised in streptavidin wells; the entry carries one added C-terminal G; also called (273-292)
# B4: CLPTM1 peptide ITINIVDDHTPWVKGSVPPPG (SEQ ID NO: 262) (peptide)
# peptide: ITINIVDDHTPWVKGSVPPPG
# modifications: also: biotinylated, position not given here
# notes: Immobilised in streptavidin wells; the entry carries one added C-terminal G; also called (242-260)
# B5: CLPTM1 peptide LDQYVKFDAVSGDYYPIIYFG (SEQ ID NO: 263) (peptide)
# peptide: LDQYVKFDAVSGDYYPIIYFG
# modifications: also: biotinylated, position not given here
# notes: Immobilised in streptavidin wells; the entry carries one added C-terminal G; also called (262-280)
# B6: CLPTM1 peptide YPINESLASLPLRVSFCPLSG (SEQ ID NO: 269) (peptide)
# peptide: YPINESLASLPLRVSFCPLSG
# modifications: also: biotinylated, position not given here
# notes: Immobilised in streptavidin wells; the entry carries one added C-terminal G; also called (292-311)
# Assays:
# GDF15 [1] = target: T1, GDF15; assay: ELISA of GDF15 binding to immobilised biotinylated CLPTM1 derived peptides; settings: for binding of GDF15 to immobilised polypeptide: cut-off approximately greater than or equal to 0.1 OD
# Description: (§1) Biotinylated synthetic peptide fragments from CLPTM1 (JPT peptides, Germany) were immobilized in a streptavidin 96 well plate (#15500 Pierce) at 1 μM in PBS over night at +4° C. Plate was washed 4 times in 300 μl PBS with 0.05% Tween-20 (wash buffer). The plate was blocked with PBS 1% BSA and 0.05% Tween-20 (blocking buffer) for 1.5 hours at room temperature then washed 4 times in wash buffer. GDF15 ligand (Abcam) was added in blocking buffer at 100 ng/ml at incubated at room temperature for 2 hours. The plate was then washed 8 times 300 μl in wash buffer with 2× NaCl. A GDF15 antibody as added at 1 ug/ml (RnD systems goat polyclonal) and incubated in block buffer for 1 hour at room temperature followed by washing with 4×300 μl wash buffer. HAF017 anti-goat-HRP antibody was added and incubated for 1 hour in blocking buffer followed by a wash. TMB substrate was added and stopped after 15 minutes with H2SO4. OD 450-620 was measured in an ELISA reader.
# Polypeptides having sequences set forth in SEQ ID NOs:250-273 were assessed for binding to GDF15 (corresponding to the polypeptides indicated from left to right in FIG. 31). These proteins were synthesised with a C-terminal glycine residue not present in the corresponding sequences from CLPTM1. A cut-off of approximately greater than or equal to 0.1 OD in the ELISA readout was identified as indicating binding of the GDF15 to an immobilised polypeptide (i.e. including the 0.098 OD value for GDF15 binding to the polypeptide having the sequence set forth in SEQ ID NO:258).
# QRFPR = target: T2, QRFPR; assay: ACTRIIB assay: in situ PLA detection of ACTRIIB at the cell surface after QRFPR agonist P518; assay type: cell-based
# Text: A-C) In situ detection of QRFPR at the cell surface. A) Negative control cells with no added GDF15. B) Cells after exposure to GDF15. C) Cells after exposure to GDF15+ synthetic peptide GEKEYDDVTIK derived from extracellular domain 4 of QRFPR. […] D-F) In situ PLA detection of ACTRIIB at the cell surface. D) Control cells with no added P518. E) Cells after exposure to P518. F) Cells after exposure to P518+ synthetic peptide GEKEYDDVTIK derived from extracellular domain 4 of QRFPR in 125 molar excess. The ability of P518 to increase the level of ACTRIIB at the cell surface was not affected by the peptide.
# The effect of the QRFPR agonist p518 was measured. In short, p518/QRFP-26 was purchased from Phoenix Peptides, CA and processed according to the manufacturer's instructions. Cells were serum-starved prior to P518 stimulation overnight.
# P518 was mixed with either PBS or QRFPR receptor fragment dissolved in PBS prior to stimulation of cells.
# GDF15 [2] = target: T1, GDF15; assay: Pull down of GDF15 by Fc fusion proteins with stringent washes; assay type: binding; settings: 20 μg Fc fusion protein, 0.5 μg GDF15, protein-G bead, FIG. 27
# Description: 20 μg Fc fusion protein constructs were incubated with 0.5 μg GDF15 and protein-G bead with mixing for 6 hrs in +4 C in PBST+1% BSAs. Wash 6 times: 3 times PBST, change tubes, 2 washes PBST+220 mM NaCl. Last wash PBS. The beads were collected using a table-top centrifuge set at 500 g for 5 minutes between washes. Detection The material was loaded on a 4-12% gradient gel, run at 100 volt, transferred to PVDF membrane using a Turbo Tank blot system, blocked by PBS with 3% BSA 1 hr RT, and incubated with RD systems a monoclonal anti-GDF15 antibody overnight. A secondary antibody: mouse HRP 1:2000 was used for detection. The size of band was estimated by comparing with a seeblue2 protein ladder marker run in an adjacent lane.
# The fragments from the receptors were selected based on previous results including array data indicating direct interaction with GDF15. In the array, the interaction is between a peptide monomer and the ligand.
# [3] = target: T3, Growth and differentiation factor 15 …; assay: ELISA, biotinylated peptide in streptavidin wells, GDF15 at 100 ng/ml
# Description: as §1, with “H₂SO₄.” for “H2SO4.”
# Polypeptides having sequences set forth in SEQ ID NOs:250-273 were assessed for binding to GDF15 (corresponding to the polypeptides indicated from left to right in FIG. 31). These proteins were synthesised with a C-terminal glycine residue not present in the corresponding sequences from CLPTM1.
Molecule,binding of GDF15 to immobilised polypeptide (GDF15 [1]; FIG. 31),binding result [3],other results
ITINIVDDHTPWVKGSVPPPG (listed as Homo sapiens) [SEQ ID NO:262],showed binding to GDF15,,
p518: QRFPR agonist purchased from Phoenix Peptides (TSGPLGNLAEELNGYSRKKGGFSFRF),,,"regulation of the levels of ACTRIIB by QRFPR agonists (QRFPR): act in opposite manner to each other; levels of ACTRIIB (QRFPR; p518 alone, serum-starved cells, overnight stimulation): sufficient to increase levels of ACTRIIB"
LDQYVKFDAVSGDYYPIIYFG (listed as Homo sapiens) [SEQ ID NO:263],showed binding to GDF15,,
"QRFP(43-mer): known agonist for QRFPR (QDEGSEATGFLPAAGEKTSGPLGNLAEELNGYSRKKGGFSFRF; ends and bridges not checked; UniProt P83859 91-133, looked up)",,,regulation of the levels of ACTRIIB by QRFPR agonists (QRFPR): act in opposite manner to each other
"Fc mouse IgG1-GGGGSGGGGSGGGGSQRLEIKYDFLYEKEH ({Fc mouse IgG1}-GGGGSGGGGSGGGGSQRLEIKYDFLYEKEH) [AP5, Fc fusion protein with QRFPR peptide]",,,pull down of GDF15 by Fc fusion protein (GDF15 [2]): capable of pulling down GDF15
YPINESLASLPLRVSFCPLSG (listed as Homo sapiens) [SEQ ID NO:269],showed binding to GDF15,,
GDYYPIIYFNDYWNLQKDYYG (listed as Homo sapiens) [SEQ ID NO:270],showed binding to GDF15,,affinity for GDF15 (MIC1) within a panel of 24 CLPTM1 derived peptides (GDF15 [1]): highest affinity
KALYRRLATVHMSRMINKYKG (listed as Homo sapiens) [SEQ ID NO:259],showed binding to GDF15,,
GSIYIHVYFTKSGFHPDPRQG (listed as Homo sapiens) [SEQ ID NO:258],showed binding to GDF15,,"OD value in the ELISA readout for GDF15 binding (GDF15 [1]; peptide immobilised at 1 μM, GDF15 100 ng/ml, OD 450-620, FIG. 31): 0.098 OD"
B1,,,pull down of GDF15 by Fc fusion protein (GDF15 [2]): did not interact with GDF15
B2,,binds,
B3,,binds,
B4,,binds,
B5,,binds,
B6,,binds,
